Publication PMC7484307 (Archives of biochemistry and biophysics, 2020)

Target: the molecule itself
Experiment: AUC

B1: His-tagged ALDH9A1 (aldehyde dehydrogenase 9A1) (enzyme, human, UniProt P49189 1-494, looked up)
chain: MSTGTFVVSQPLNYRGGARVEPADASGTEKAFEPATGRVIATFTCSGEKEVNLAVQNAKAAFKIWSQKSGMERCRILLEAARIIREREDEIATMECINNGKSIFEARLDIDISWQCLEYYAGLAASMAGEHIQLPGGSFGYTRREPLGVCVGIGAWNYPFQIASWKSAPALACGNAMVFKPSPFTPVSALLLAEIYSEAGVPPGLFNVVQGGAATGQFLCQHPDVAKVSFTGSVPTGMKIMEMSAKGIKPVTLELGGKSPLIIFSDCDMNNAVKGALMANFLTQGQVCCNGTRVFVQKEILDKFTEEVVKQTQRIKIGDPLLEDTRMGPLINRPHLERVLGFVKVAKEQGAKVLCGGDIYVPEDPKLKDGYYMRPCVLTNCRDDMTCVKEEIFGPVMSILSFDTEAEVLERANDTTFGLAAGVFTRDIQRAHRVVAELQAGTCFINNYNVSPVELPFGGYKKSGFGRENGRVTIEYYSQLKTVCVEMGDVESAF
stoichiometry N: 4
